One molecule from article PMC6344286 (Arteriosclerosis, thrombosis, and vascular biology, 2019) can be followed below.

Experiment [1] addresses T1, p47phox, recombinant wild type (human), P14598.
T1 chain: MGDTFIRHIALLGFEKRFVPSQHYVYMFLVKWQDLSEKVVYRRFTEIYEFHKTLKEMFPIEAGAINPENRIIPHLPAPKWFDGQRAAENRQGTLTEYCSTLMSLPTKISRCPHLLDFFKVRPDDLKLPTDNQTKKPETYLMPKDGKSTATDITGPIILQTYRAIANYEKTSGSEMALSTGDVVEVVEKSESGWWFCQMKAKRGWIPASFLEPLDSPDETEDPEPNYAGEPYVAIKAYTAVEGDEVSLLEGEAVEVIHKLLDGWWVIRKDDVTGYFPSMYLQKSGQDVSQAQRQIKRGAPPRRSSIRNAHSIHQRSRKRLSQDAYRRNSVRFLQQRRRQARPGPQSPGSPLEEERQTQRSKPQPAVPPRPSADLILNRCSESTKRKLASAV
The experiment in a line: non-reducing SDS-PAGE of a disulfide-linked complex. The settings on record: remark: other sources report otherwise.

Experiment [2] concerns the target Protein disulfide isomerase A1 (PDI), recombinant wild type (human, UniProt P07237 18-508). The description is as above.

Sequence of Protein disulfide isomerase A1 (PDI), recombinant wild type (P07237 18-508): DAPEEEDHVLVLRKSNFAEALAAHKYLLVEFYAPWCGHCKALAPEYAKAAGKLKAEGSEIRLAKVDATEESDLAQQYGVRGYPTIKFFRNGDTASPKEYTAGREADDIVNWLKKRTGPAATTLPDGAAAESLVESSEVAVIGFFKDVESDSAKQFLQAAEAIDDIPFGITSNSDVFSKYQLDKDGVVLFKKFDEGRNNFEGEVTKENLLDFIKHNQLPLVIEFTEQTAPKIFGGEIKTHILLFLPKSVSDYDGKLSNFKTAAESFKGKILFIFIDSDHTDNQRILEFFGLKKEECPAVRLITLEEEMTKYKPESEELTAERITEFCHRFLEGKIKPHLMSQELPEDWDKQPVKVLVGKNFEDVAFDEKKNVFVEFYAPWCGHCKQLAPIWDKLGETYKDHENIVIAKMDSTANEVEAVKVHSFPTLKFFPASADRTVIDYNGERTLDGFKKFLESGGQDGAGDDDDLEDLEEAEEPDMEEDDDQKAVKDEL

B1: p47phox, recombinant wild type (natural protein, human, UniProt P14598 1-390, looked up)
chain: T1 chain
As for B1, the stoichiometry N (commonly a count of units in the complex or per binding partner) in experiment [1] is 2. Further, the binding result in experiment [2] is given as “binds”.
